Results on one substance are retold here after publication PMC8204981, “Helicobacter pylori GmhB enzyme involved in ADP-heptose biosynthesis pathway is essential for lipopolysaccharide biosynthesis and bacterial virulence” (Virulence, 2021).

The test system of data set [1] is O=P(O)(O)OC[C@@H](O)[C@H]1O[C@H](OP(=O)(O)O)[C@@H](O)[C@@H](O)[C@@H]1O. Kind of data set: purified protein. As to conditions: 20 mM HEPES pH 8.0, 10 mM MgCl2, 10 mM KCl, 25 °C, 30 min.
Text: (§1) malachite green phosphate release assay, Michaelis-Menten fit on HP0860 protein (H. pylori GmhB)
Data set [2] has as its system O=P(O)(O)OC[C@@H](O)[C@H]1O[C@@H](OP(=O)(O)O)[C@@H](O)[C@@H](O)[C@@H]1O. The data set is described as follows: purified protein. The note with it: 20 mM HEPES pH 8.0, 10 mM MgCl2, 10 mM KCl, 25 °C, 30 min.
Text: as §1

For the substance “HP0860 protein (H. pylori GmhB) (Helicobacter pylori 26695)”, in data set [1], the Km was 300 ± 80 µM, the kcat was determined as 1.07 ± 0.1 s⁻¹ and the kcat/Km was 3570 M⁻¹ s⁻¹. Besides, in data set [2], the Km amounted to 210 ± 50 µM, the kcat came to 2.18 ± 0.17 s⁻¹ and the kcat/Km was 10400 M⁻¹ s⁻¹.
